In patent publication US20230174641A1 (H LUNDBECK A S, published 2023):
Ends that are not written are not given here.

T1: N-term biotinylated human ACTH 1-39 (human, N-terminal biotin)
T1 construct: also called huACTH 1-39
T1 peptide: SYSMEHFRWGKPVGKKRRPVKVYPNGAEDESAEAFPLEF

T2: human ACTH 1-39 (human)
T2 peptide: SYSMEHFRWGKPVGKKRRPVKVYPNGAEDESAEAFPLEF

T3: human ACTH 18-39 (human)
T3 construct: also called CLIP; CLIP (ACTH 18-39)
T3 peptide: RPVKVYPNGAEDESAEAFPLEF

T4: human ACTH 1-13 (human, ends and bridges not checked)
T4 construct: also called human alpha-MSH (ACTH 1-13); alpha-MSH
T4 peptide: SYSMEHFRWGKPV

T5: ACTH 1-24 (human)
T5 peptide: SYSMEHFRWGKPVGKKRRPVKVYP


What was measured:
[1] = biological target: T1, N-term biotinylated human ACTH 1-39; experiment: ELISA, biotin-ACTH 1-39 on neutravidin plate
Description: All incubations were done at room temperature. […] The plates were then blocked using a blocking solution (PBS, 0.5% fish skin gelatin, 0.05% Tween-20) for approximately one hour. The blocking solution was then removed and the plates were then incubated with a dilution series of the antibody being tested for approximately one hour. At the end of this incubation, the plate was washed three times with wash buffer and further incubated with a secondary antibody containing solution (Peroxidase conjugated AffmiPure™ F(ab′)₂ fragment goat anti-human IgG, Fc fragment specific (Jackson Immunoresearch) for approximately 45 minutes and washed three times. Next a substrate solution (TMB peroxidase substrate, BioFx®, SurModics, Eden Prairie, Minn.) was added and incubated for 3 to 5 minutes in the dark. The reaction was stopped by addition of 0.5 M HCl and the plate was read at 450 nm in a plate-reader.

[2] = biological target: T2, human ACTH 1-39; experiment: cell-based or functional assay
[3] = biological target: T1, N-term biotinylated human ACTH 1-39; experiment: competition HTRF, biotinylated human ACTH 1-39 in the presence of ACTH 1-13 and ACTH 18-39 at 1X (55 nM each, [p-2038])
Description: (§1) Twenty microliters of Eu3+cryptate labeled anti-hu Fc donor and 20 μl of d2-labeled streptavidin acceptor were added to each well and incubated for 1 hour at room temperature. Fluorescence was measured at […] with a delay of 300 μsec.

[4] = biological target: T2, human ACTH 1-39; experiment: cell-based or functional assay
[5] = biological target: T1, N-term biotinylated human ACTH 1-39; experiment: competition HTRF, biotinylated human ACTH 1-39 in the presence of ACTH 1-13 and ACTH 18-39 at 10X (550 nM each, [p-2038])
Description: as §1

[6] = biological target: T2, human ACTH 1-39; experiment: cell-based or functional assay
[7] = biological target: T2, human ACTH 1-39; experiment: cell-based or functional assay
[8] = biological target: T3, human ACTH 18-39; experiment: SPR ProteOn, antibody immobilised
Description: (§2) Antibody was immobilized to the surface of general amine coupling (GLC or GLM) Chips (Bio-Rad). […] At the chosen concentrations of antigen (ranging from 454 ng/ml to 5.6 ng/ml) association times of 200 seconds and dissociation times of 30-200 minutes were used with the ProteOnTM Manager Software (v3.1.0.6, Bio-Rad) to group and fit data using a 1:1 Langmuir binding model. Surfaces were regenerated between analyte queries using 10 mM glycine at pH 2.0. Data repeated across a single density was averaged and a single KD and standard propagation of error calculated for each antibody.

[9] = biological target: T2, human ACTH 1-39; experiment: SPR ProteOn, antibody immobilised
Description: as §2

[10] = biological target: T4, human ACTH 1-13; experiment: SPR ProteOn, antibody immobilised; SPR, antibody on the chip, alpha-MSH alone (Table 6)
Description: as §2

[11] = biological target: T5, ACTH 1-24; experiment: cell-based or functional assay
[12] = biological target: T4, human ACTH 1-13; experiment: SPR ProteOn, antibody immobilised
Description: as §2

EC50 [1]	MC1R IC50 [2]	EC50 (read off the curve) [3]	MC2R IC50 [4]	EC50 (read off the curve) [5]	Y1 Cells IC50 [6]	MC3R IC50 [7]	MC4R IC50 [7]	MC5R IC50 [7]	koff [8]	Kd [9]	koff [9]	kon [9]	Kd [10]	koff [10]	kon [10]	IC50 (nM), cAMP in MC2R cells [11]	koff [12]	Kd [8]	kon [8]	Binder
1.5 nM	1.96 nM	~2 nM	0.11 nM	~3 nM	3.49 nM	58.1 nM	43.4 nM	1000 nM	> 0.1 s⁻¹	0.064 nM	6.4e-05 s⁻¹	1e+06 M⁻¹ s⁻¹	55 nM	0.014 s⁻¹	260000 M⁻¹ s⁻¹					Ab5 (antibody, human IgG1, kappa, N297A, V domains shown, rabbit/human chimeric antibody, made in HEK-293) VH: QSVEESGGRLVTPGTPLTLTCTVSGFSLSSYAMSWVRQAPGEGLEWIGIISDSGSTYYASWAKGRFTISKTSTTVDLKITSPTTEDTATYFCAREPEYGYDDYGDWVSDLWGQGTLVTVSS VL: DIVMTQTPASVSEPVGGTVTIKCQASQSISSYLSWYQQKPGQPPKLLIYRASTLASGVPSRFKGSGSGTQFTLTISDLECADAATYYCQSYYYSSSITYRNAFGGGTEVVVKR
0.42 nM	3.62 nM		0.25 nM			79 nM	54.5 nM	1100 nM	0.026 s⁻¹							1.3 nM	> 0.1 s⁻¹	31 nM	840000 M⁻¹ s⁻¹	Ab2 (antibody, human IgG1, kappa, N297A, V domains shown, rabbit/human chimeric antibody, made in HEK-293) VH: QSVEESGGRLVTPGTPLTLTCTVSGFSLSKYDMIWVRQAPGKGLESIGIIYDDGDTYYASWAKGRFTISQTSTTVDLKIISPTTEDTATYFCVKGVSNIWGQGTLVTVSS VL: DVVMTQTPASVEAAVGGTVTIKCQASQSISNYLAWYQQKTGQPPKLLIYSASTLASGVPSRFKGSGSGTEFTLTISDLECADAATYYCQSYEGSSSSSYGVGFGGGTEVVVKR
0.24 nM	4.12 nM		0.29 nM		7.72 nM	58.7 nM	54.2 nM	1100 nM	0.0085 s⁻¹							0.8 nM	> 0.1 s⁻¹	25 nM	340000 M⁻¹ s⁻¹	Ab3 (antibody, human IgG1, kappa, N297A, V domains shown, rabbit/human chimeric antibody, made in HEK-293) VH: QSLEESGGRLVTPGTPLTLTCTVSGSSLSNFDMIWVRQAPGKGLESIGIIYDFGSTYYASWAKGRFTISRTSSTTVDLKIISPTIEDTATYFCVKGVSNIWGQGTLVTVSS VL: DVVMTQTPASVEAAVGGTVTIKCQASEDISSNLAWYQQKLGQPPKLLIYSASTLASGVPSRFKGSGSGTEFTLAISDLECADAATYYCQSYDGSSSSSYGIGFGGGTEVVVKR
